Data from the nanobody polyreactivity screen of Harvey et al. (2022).

Assay: yeast display, Sf9 membrane polyspecificity reagent, FACS + sequencing; frameworks hold sequencing errors
Method in brief: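 Using colony PCR, genes from sorted yeast display clones were amplified, then sequenced on MiSeq at 2 × 250 and filtered by CDR length. The clones had been stained with 10% biotinylated, detergent-solubilized Sf9 membrane reagent for 1 hour at 4 °C and sorted by FACS into low and high (top ~1%) gates on anti-HA and streptavidin fluorescence. Polyreactivity labels come from the gate of origin.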

Row | Sequence | polyreactivity (PSR sort gate)
1 | QVQLVESGGGLVQAGGSLRLSCAASGSTFAVYAMGWYRQAPGKVRELVAAMRYSGGSTYADSVKGRFTISRDNAKNTVYLQMNSLKPEDTAVYYCAAYVYSLGGEYGYWGQGTHVTVSS | high polyreactivity
2 | QVQLVESGGGLVQAGGSLRLSCAASGSTFAVYTMGWYRQAPGKERELSTSYADSVKGRFTISRDNAKNTVYLQMNSLKPEDTAVYYCNRDFYEFDSNSYRFDYWGQGTQVTVSS | low polyreactivity
3 | QVQLVESGGGLVQAGGSLRLSCAASGSTFAWNAMGWDRQAPGKERELVAAISKSGGSTYYADSVKGRFTISRDNAKNTVYLQMNSLKPEDTAVYYCAASGTVYARVRYYYWGQGTQVTVSS | high polyreactivity
4 | QVQLVESGGGLVQAGGSLRLSCAASGSTFAWYAMGWYRQAPGKERELVAGIWNTGRTYYADSVKGRFTISRDNAKNTVYLLMHSLKPEDTAVYYCAALYNSPNVTYYYWGQGTQVTVSS | high polyreactivity
5 | QVQLVESGGGLVQAGGSLRLSCAASGSTFAWYAMGWYRTAPGKERELVAAISRTGRTYYADSVKGRFTMSRDNAKNTVYLQMNSLKPEDTAVYYCAARIERFYRDQRYDYWGQGTQVTVSS | high polyreactivity
6 | QVQLVESGGGLVQAGGSLRLSCAASGSTFAYNDMGWYRQAPGKERDLVADIRYGGNTNYADSVKGRFTISRDNAKNTDYFQMNSLKPVDTSVYYCATDGYRSDVYHPDYRYDYWGQCTQVTVSS | low polyreactivity
7 | QVQLVESGGGLVQAGGSLRLSCAASGSTFAYNTMGWYRQAPGKDRELVAAISQRGGSTYADSVKGRFTISRDNAKNTVYLQMNSLKPEDNAVYYCAADGYTYKFDYWGQGTQVTVSS | low polyreactivity
8 | QVQLVESGGGLVQAGGSLRLSCAASGSTFAYYAMGWYRPAPGKERELVAVISVRGGSTYYAESVKGRFTISRDNAKNTVYLQMNSLKPEDTAVYYCAADTFAGYYYWGQGTQVTVSS | high polyreactivity
9 | QVQLVESGGGLVQAGGSLRLSCAASGSTFAYYAMGWYRPAPGTERELVAAISKSGGSTYYADSVKGRFTISRDNAKNTFYIQMISLKPEDTAVYYCAAGKFRYRSRFDFWGQGTQVTVSS | high polyreactivity
10 | QVQLVESGGGLVQAGGSLRLSCAASGSTFAYYAMGWYRPAPGTERELVAAISSGGSTYYADSVKGRFTISRDNAKNTVYLQMNSLKPEDTAVYYCAADAVKASVSYIVPYAAYDYWGQGTQVTVSS | low polyreactivity
11 | QVQLVESGGGLVQAGGSLRLSCAASGSTFAYYAMGWYRQAPGKEREFVAVINWRGGSTYYADSVKGRFTISRDNAKNTVYLQMNSLKQEDTAVYYCNGRSGGYYYGFDYWGQGTQVTVSS | low polyreactivity
12 | QVQLVESGGGLVQAGGSLRLSCAASGSTFAYYAMGWYRQAPGKERELVAAISVSGGRTYYADSVKGRFTISRDNAKNTVYLQMNSLKPEDTAVYYCAKRFIYGRYNYWGQGTQVTVSS | high polyreactivity
13 | QVQLVESGGGLVQAGGSLRLSCAASGSTFAYYAMGWYRQAPGKERELVAAITIDGRTSYADSVKGRFTISRDNAKNTVYLQMNSLKAEDTAVYYCAADSSAWLYDYWGQGTQVTVSS | low polyreactivity
14 | QVQLVESGGGLVQAGGSLRLSCAASGSTFAYYAMGWYRQAPGKERELVAGISGSGGSTYYADSVKGRFTISRDNAKNTVYLQLNSLKPEDTAVYYCAVVQRSKRTYPWYDYWGQGTQVTVSS | low polyreactivity
15 | QVQLVESGGGLVQAGGSLRLSCAASGSTFAYYAMGWYRQAPGKERELVASISWRGGSTYYAESVKGRFTISRDNAKNTVYLQMNSLKPEDTAVYYCAAGRFYTWSRSQEYDYWGQGTQVTVSS | low polyreactivity
16 | QVQLVESGGGLVQAGGSLRLSCAASGSTFAYYTMGWYRQAPGKERELVAAISKSGGSTTYADSVKGRFTISRDNAKNTVYLQMNSLKPEETAVYYCAAARKYYGYNYWGQGTQVTVSS | high polyreactivity

Row | Sequence | polyreactivity (PSR sort gate)
17 | QVQLVESGGGLVQAGGSLRLSCAASGSTFDANAMGWYRQAPGKERELVAAISSSGVRTYYADSVKGRFTISRDNAKNTVYLQMNSLKPEDTAVYYCAAGVVISTVDVTYGYWGQGTQVTVSS | low polyreactivity
18 | QVQLVESGGGLVQAGGSLRLSCAASGSTFDANAMGWYRQAPGKERELVATISDGGSTNYADSVKGRFTISRDNAKNTVYLQMNSLKPEDTAVYYCAAVKLFLGLGYDYWGQGTQVTVSS | low polyreactivity
19 | QVQLVESGGGLVQAGGSLRLSCAASGSTFDANAMGWYRQAPGKERELVATISDGGSTNYADSVKGRFTISRDNAKNTVYVQMNSLKPEDTAVYYCAAVKLFLGLGYDYWGQGTEVTVSS | low polyreactivity
20 | QVQLVESGGGLVQAGGSLRLSCAASGSTFDAYAMGWCRQAPGTERELVAAITNAGSTNYADSVKGRFTISRDNAKNTVYLQMNSLKPEDTAVYYCATDWYHRYLDGRYDYWVQGTQVTVSS | low polyreactivity
21 | QVQLVESGGGLVQAGGSLRLSCAASGSTFDDYAMGWYRQAPGKERELVAAIYWSSGRTYYADSVKGRFTISRDNAKNTVYLQMNSLKPEDTAVYYCAARNRYDRLRYYYWGQGTQVTVSS | high polyreactivity
22 | QVQLVESGGGLVQAGGSLRLSCAASGSTFDENAMGWYRQAPGKERELVAVISDSGGSTYYADSVKGRFTISRDNAKNTVDLQMNSLKPEVTAVYYCAKDVPPEYPTSSYDYWGQGTQVTVSS | low polyreactivity
23 | QVQLVESGGGLVQAGGSLRLSCAASGSTFDFNAMGWYRQAPGKERELVAAITGSDGNTYYADSVKGRFTISRDNAKNTVYLQMNSLKPEDTAVYYCAADFSWWSKYVVLYDYWGQGTQVTVSS | low polyreactivity
24 | QVQLVESGGGLVQAGGSLRLSCAASGSTFDFYAMAWYRQAPGKERELVADITSGGRTSYADSVKGRFTISRDNAKNTVYLQMNSLKPEDTAVYYCAALTRWYAWYDYWGQGTQVTVSS | high polyreactivity
25 | QVQLVESGGGLVQAGGSLRLSCAASGSTFDGYAMGWYRQAPGKERELVAAISASGGSTYYADSVKGRFTISRDNAKNTVYLQMNSLKPEDTAVYYCAAQVRYLCYRYDYWGQGSQVTVSS | high polyreactivity
26 | QVQLVESGGGLVQAGGSLRLSCAASGSTFDGYAMGWYTQAPGKERELVAAISKNGGRTYYADSVKGRFTISRDNAKNTVYLQMNSLKPEDTAVYYCAIDIIKYDYDYWGQGTQVTVSS | low polyreactivity
27 | QVQLVESGGGLVQAGGSLRLSCAASGSTFDHYTMGWYRPAPGKERELVAAINRIGDSTYYADSVKGRFTISRDNAKNTVYLQMNSLKPEDTAVYYCAARHVPRFNKYGYWGQGTQVTVSS | high polyreactivity
28 | QVQLVESGGGLVQAGGSLRLSCAASGSTFDINAMGWYRQAPGKERELVAAISWGGGSTYYADSVKGRFTISRDNAKNTVYLQMNSLKPEDTAVYYCAKLKGTQPNRYDYWGQGTQVTVSS | low polyreactivity
29 | QVQLVESGGGLVQAGGSLRLSCAASGSTFDIYAMGWYRQAPGKERELVAAIRYSGGSTYYADSVKGRFTISRDNAKYTVYLQMNSLKPEDTAVYYCAADPYQLWHYYYFGMDYWGQGTEVTVSS | low polyreactivity
30 | QVQLVESGGGLVQAGGSLRLSCAASGSTFDIYAMGWYRQAPGKERELVAVISGGDGSTYYADSVKGRFTISRDNAKNTVYLQMNSLKPEDTAVYFCAADYISPGYWDGEYDCWGQGTQVTVSS | low polyreactivity
31 | QVQLVESGGGLVQAGGSLRLSCAASGSTFDIYAMGWYRQAPGNERELVAAISVSGGSTYYADSVKGRFTIARDNAKNTVDLQMNSLKPEDTAVYYCAAEAYTRFYQQFDYWGQGTQVTVSS | high polyreactivity
32 | QVQLVESGGGLVQAGGSLRLSCAASGSTFDKKAMGWYRQAPGKERELVAAITWRGGRTYYADSVKGRFTISRDNAKNTVYLQLNSLKPEDTAVYYCNKVSWEQMDYWGQGTQVTVSS | low polyreactivity
